Target: T1, FLAG-hSIRT1-FL (full length human SIRT1, FLAG-tagged) (human, UniProt Q96EB6 1-747)
T1 sequence (looked up): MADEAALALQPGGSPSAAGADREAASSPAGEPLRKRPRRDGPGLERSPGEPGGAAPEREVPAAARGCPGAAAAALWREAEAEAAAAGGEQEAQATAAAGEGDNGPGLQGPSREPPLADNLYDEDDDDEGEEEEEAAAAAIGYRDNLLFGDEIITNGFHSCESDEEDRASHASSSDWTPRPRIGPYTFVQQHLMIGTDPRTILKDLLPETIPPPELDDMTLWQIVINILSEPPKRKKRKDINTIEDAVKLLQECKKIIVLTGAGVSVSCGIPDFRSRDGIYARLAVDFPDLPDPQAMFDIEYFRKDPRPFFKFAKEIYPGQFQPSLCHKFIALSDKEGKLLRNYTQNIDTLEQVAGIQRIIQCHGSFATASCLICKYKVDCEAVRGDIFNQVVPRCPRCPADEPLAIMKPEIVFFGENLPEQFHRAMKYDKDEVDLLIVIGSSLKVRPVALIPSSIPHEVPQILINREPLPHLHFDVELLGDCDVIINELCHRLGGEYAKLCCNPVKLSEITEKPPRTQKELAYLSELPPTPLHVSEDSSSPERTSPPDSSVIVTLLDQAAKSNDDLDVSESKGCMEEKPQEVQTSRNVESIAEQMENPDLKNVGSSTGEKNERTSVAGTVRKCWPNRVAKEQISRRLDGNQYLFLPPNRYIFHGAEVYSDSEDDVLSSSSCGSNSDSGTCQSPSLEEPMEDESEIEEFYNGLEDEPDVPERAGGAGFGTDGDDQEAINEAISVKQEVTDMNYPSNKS
Test: pull-down

B1: GST-TDG(67–308) (domain or fragment, human, UniProt Q13569 67-308, looked up)
chain: TTEPKQPVEPKKPVESKKSGKSAKSKEKQEKITDTFKVKRKVDRFNGVSEAELLTKTLPDILTFNLDIVIIGINPGLMAAYKGHHYPGPGNHFWKCLFMSGLSEVQLNHMDDHTLPGKYGIGFTNMVERTTPGSKDLSSKEFREGGRILVQKLQKYQPRIAVFNGKCIYEIFSKEVFGVKVKNLEFGLQPHKIPDTETLCYVMPSSSARCAQFPRAQDKVHYYIKLKDLRDQLKGIERNMDV
binding result: binds

From PMC4465237 (The Biochemical journal, 2013)
